Data published in patent US20220403031A1 (WUXI BIOLOGICS IRELAND, published 2022).

Legend:
[1] = biological target: Factor VIII; assay: non-specific binding ELISA; antigen coated at 2 ug/mL, antibody at 10 ug/ml
Description: (§1) Non-specific binding ELISA was performed in 96-well high binding plates (Nunc-Immuno Plate, Thermo Scientific). The plate was coated with various antigens (as listed in the left column of Table 11) at 2 μg/mL overnight at 4° C. After blocking with 2% BSA-PBS, 10 μg/ml antibodies were added to the plate and incubated for 2 hours. […] The HRP signal was detected by adding TMB peroxidase substrate and the reaction was stopped after 12 minutes using 2M HCl. The absorbance at 450 nm was read using a microplate reader (Molecular Device). All incubation steps were performed at room temperature. The plate was washed with PBST (0.05% Tween20-PBS) between steps.

[2] = biological target: FGFR.his; assay: as above
Description: as §1

[3] = biological target: CD147.his; assay: as above
Description: as §1

[4] = biological target: CTLA4.his; assay: as above
Description: as §1

[5] = biological target: T1, W317-hPro1.his; assay: as above
T1 construct: identity unknown
Description: as §1

[6] = biological target: CD22.his; assay: as above
Description: as §1

[7] = biological target: VEGF.his; assay: as above
Description: as §1

[8] = biological target: CD3.his; assay: as above
Description: as §1

[9] = biological target: CD40; assay: as above
Description: as §1

[10] = biological target: human serum Albumin (human, UniProt P02768 25-609); assay: as above
Description: as §1

[11] = biological target: T2, his-tagged human PD-L1 (R&D-9049-B7), hPro1.ECD.His (human, UniProt Q9NZQ7 19-238); assay: SPR (ProteOn), antibody captured by anti-human IgG Fc, antigen as analyte, 1:1 model
T2 construct: extracellular domain; His tag; also called hPro1.ECD.His (human PD-L1 ECD); human PD-L1 ECD protein (R&D-9049-B7)
Description: (§2) Antibodies binding affinities to his-tagged human PD-L1 (R&D-9049-B7), his-tagged cynomolgus PD-L1 (Sino Biological-90251-C08H) and his-tagged mouse PD-L1 (Sino Biological-50010-M08H) were detected by surface plasmon resonance (SPR) assay using the software ProteOn. Testing antibody was captured on anti-human IgG Fc antibody immobilized GLM chip (Bio-rad). The chip was rotated 90° and washed with running buffer until the baseline is stable. hPro1.ECD.His, cynoPro1.ECD.His and mPro1-ECD-His at different concentrations was injected over the sensor chip at a flow rate of 100 uL/min for an association phase of 120 s, followed by 240-800 s dissociation. The chip was regenerated by 10 mM glycine (pH 1.5) following every dissociation phase.
(§3) The sensorgrams for reference channel L1 and buffer channel A6 were subtracted from the test sensorgrams. The experimental data were fitted by 1:1 binding model. Molecular weight of 40 kDa was used to calculate the molar concentration of analyte hPro1.ECD.His (R&D), cynoPro1.ECD.His and mPro1-ECD-His.

[12] = biological target: T3, his-tagged cynomolgus PD-L1 (Sino Biological-90251-C08H), cynoPro1.ECD.His (cynomolgus, UniProt G7PSE7 19-238); assay: as above
T3 construct: extracellular domain; His tag; also called cynoPro1.ECD.His (cyno PD-L1 ECD)
Description: as §2, §3

[13] = biological target: T4, his-tagged mouse PD-L1 (Sino Biological-50010-M08H), mPro1-ECD-His (mouse, UniProt Q9EP73 19-239); assay: as above
T4 construct: extracellular domain; His tag; also called mPro1-ECD-His (mouse PD-L1 ECD)
Description: as §2, §3

T3 sequence (G7PSE7 entry or part of it C08H C08H): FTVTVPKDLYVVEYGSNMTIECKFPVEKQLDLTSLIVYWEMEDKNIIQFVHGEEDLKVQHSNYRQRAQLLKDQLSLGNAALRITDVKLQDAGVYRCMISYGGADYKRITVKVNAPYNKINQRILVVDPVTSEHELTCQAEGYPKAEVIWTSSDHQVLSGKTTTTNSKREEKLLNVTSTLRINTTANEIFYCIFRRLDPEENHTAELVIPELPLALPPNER
T4 sequence (Q9EP73 19-239, stated change not applied): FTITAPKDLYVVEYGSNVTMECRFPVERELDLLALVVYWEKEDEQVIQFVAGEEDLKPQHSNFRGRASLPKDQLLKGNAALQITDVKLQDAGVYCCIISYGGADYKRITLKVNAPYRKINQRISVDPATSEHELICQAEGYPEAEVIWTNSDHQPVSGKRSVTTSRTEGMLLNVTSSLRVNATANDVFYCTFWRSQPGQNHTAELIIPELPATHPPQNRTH
T2 sequence (Q9NZQ7 19-238): as the sequence (G7PSE7 entry or part of it C08H C08H) above, with T33A, S34A, N62S, Q68R, R82Q, L173F, A185T, I192T, L215H counted along it
Sequence of CD40 (P25942 21-193): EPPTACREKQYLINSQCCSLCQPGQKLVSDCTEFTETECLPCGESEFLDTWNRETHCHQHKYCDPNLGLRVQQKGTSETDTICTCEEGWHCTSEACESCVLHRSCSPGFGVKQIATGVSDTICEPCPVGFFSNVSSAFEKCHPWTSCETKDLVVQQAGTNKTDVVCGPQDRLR
Sequence of VEGF.his (P15692 whole entry): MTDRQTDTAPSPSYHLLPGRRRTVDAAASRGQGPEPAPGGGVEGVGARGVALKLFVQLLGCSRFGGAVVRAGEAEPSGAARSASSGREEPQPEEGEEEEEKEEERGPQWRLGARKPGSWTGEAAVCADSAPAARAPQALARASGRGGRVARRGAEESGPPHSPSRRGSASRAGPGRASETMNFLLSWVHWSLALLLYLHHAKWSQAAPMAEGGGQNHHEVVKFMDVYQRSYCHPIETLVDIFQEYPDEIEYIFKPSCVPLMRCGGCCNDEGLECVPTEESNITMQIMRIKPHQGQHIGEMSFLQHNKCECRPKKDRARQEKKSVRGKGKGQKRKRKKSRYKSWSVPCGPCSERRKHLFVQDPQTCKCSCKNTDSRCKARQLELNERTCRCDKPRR
Sequence of CTLA4.his (P16410 36-161): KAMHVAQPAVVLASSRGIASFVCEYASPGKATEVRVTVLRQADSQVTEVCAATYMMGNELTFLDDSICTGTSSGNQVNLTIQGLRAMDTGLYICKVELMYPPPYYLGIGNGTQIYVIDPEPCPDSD

Absorbance at 450 nm [1]: 0.06
Absorbance at 450 nm [2]: 0.14
Absorbance at 450 nm [3]: 0.07
Absorbance at 450 nm [4]: 0.08
Absorbance at 450 nm [5]: 0.06
Absorbance at 450 nm [6]: 0.06
Absorbance at 450 nm [7]: 0.09
Absorbance at 450 nm [8]: 0.07
Absorbance at 450 nm [9]: 0.25
Absorbance at 450 nm [10]: 0.42
Kd [11]: 0.208 nM
koff [11]: 0.000385 s⁻¹
kon [11]: 1.85e+06 M⁻¹ s⁻¹
Kd [12]: 0.251 nM
koff [12]: 0.000478 s⁻¹
kon [12]: 1.91e+06 M⁻¹ s⁻¹
Kd [13]: 19.4 nM
koff [13]: 0.0114 s⁻¹
kon [13]: 589000 M⁻¹ s⁻¹
B1: AP3R2-1A3-z12-hIgG4 (Fc fusion)
chain: EVQLVESGGGLVQPGGSLRLSCAASGHFSNLAVNWFRQAPGKERELVAGILWSGGSTFYADSVKGRFTISRGNAENMLYLQMNSLRAEDTAVYYCNTGTNWGQGTLVTVSS
notes: VHH-Fc (hIgG4) fusion of the humanized VHH; also called W3156-AP3R2-1A3-z12-hIgG4; W3156 antibody; not shown: Fc of human IgG4
